Assay results as given in publication PMC3742469.
Where “and” joins values, the source holds several entries; their conditions need not be identical. Identical values can stand only once. Blank lines part the entries; values can stand above or below the substance they belong to.

How the values were obtained:
[1] = target: respiratory chain complex IV, human fibroblasts (human (endogenous in fibroblasts)) (UniProt P13073); experiment: native gel or EMSA; clear native electrophoresis (CNE), 6-15% gradient gels, of digitonin-solubilised (4 g/g protein) mitochondria of human fibroblasts (control and patients) and ρ0 cells; western blot, in-gel activity staining, 2D CNE/SDS PAGE
[2] = target: ATP synthase (complex V), human fibroblasts (human (endogenous in fibroblasts)) (UniProt P25705); experiment: as above
[3] = target: CV lacking the mtDNA-coded subunits (ρ0 cells) (human (endogenous in 143B TK- ρ0 cells)) (UniProt P25705); experiment: as above
[4] = target: respiratory chain complex IV, rat heart (rat (endogenous in rat heart mitochondria)) (UniProt P10888); experiment: native gel or EMSA; clear native electrophoresis (CNE), 6-15% gradient gels, of digitonin-solubilised (4 g/g protein) rat heart mitochondria; western blot, in-gel activity staining, 2D CNE/SDS PAGE and CNE/CNECBG

stoichiometry N [1]: 2
Substance: respiratory chain complex IV, human fibroblasts (from UniProt P13073 23-169; P00395 1-513)

stoichiometry N [2]: 2 and 4
Substance: ATP synthase (complex V), human fibroblasts (from UniProt P25705 44-553; P06576 48-529; P36542 26-298; P00846 1-226; P03928 1-68)

Substance: CV lacking the mtDNA-coded subunits (ρ0 cells) (from UniProt P25705 44-553; P06576 48-529; P36542 26-298) (complex)
stoichiometry N [3]: 2 and 4

stoichiometry N [4]: 2
Substance: respiratory chain complex IV, rat heart (from UniProt P10888 23-169; P05503 1-514)
